Source: PMC10989685, “Structural and functional characterization of the IgSF21-neurexin2α complex and its related signaling pathways in the regulation of inhibitory synapse organization” (Frontiers in Molecular Neuroscience, 2024)

Biological target: T1, Recombinant human Fc-tagged NRXN2α (human Nrxn2α-Fc, R&D Systems #6636-NX) (human, UniProt Q9P2S2 29-1636)
T1 construct: Neurexin2α (Nrxn2α), human, ectodomain; The catalogue number is printed for the pull-down only; Limits and splice variant are in the supplier's data sheet; also called soluble Nrxn2α ectodomain; soluble Nrxn2α; source: bought: R&D Systems (#6636-NX), highly purified
Test: SPR; Biacore T200; IgSF21-His amine-coupled to a CM5 chip (500 RU); NRXN2α-Fc as analyte, 0 to 200 nM; PBS pH 7.4, 0.025% Tween-20, 25°C, 20 μl/min; one-site Langmuir (1:1) model, kinetic analysis
Details: both partners purified

T1 sequence (Q9P2S2 29-1636): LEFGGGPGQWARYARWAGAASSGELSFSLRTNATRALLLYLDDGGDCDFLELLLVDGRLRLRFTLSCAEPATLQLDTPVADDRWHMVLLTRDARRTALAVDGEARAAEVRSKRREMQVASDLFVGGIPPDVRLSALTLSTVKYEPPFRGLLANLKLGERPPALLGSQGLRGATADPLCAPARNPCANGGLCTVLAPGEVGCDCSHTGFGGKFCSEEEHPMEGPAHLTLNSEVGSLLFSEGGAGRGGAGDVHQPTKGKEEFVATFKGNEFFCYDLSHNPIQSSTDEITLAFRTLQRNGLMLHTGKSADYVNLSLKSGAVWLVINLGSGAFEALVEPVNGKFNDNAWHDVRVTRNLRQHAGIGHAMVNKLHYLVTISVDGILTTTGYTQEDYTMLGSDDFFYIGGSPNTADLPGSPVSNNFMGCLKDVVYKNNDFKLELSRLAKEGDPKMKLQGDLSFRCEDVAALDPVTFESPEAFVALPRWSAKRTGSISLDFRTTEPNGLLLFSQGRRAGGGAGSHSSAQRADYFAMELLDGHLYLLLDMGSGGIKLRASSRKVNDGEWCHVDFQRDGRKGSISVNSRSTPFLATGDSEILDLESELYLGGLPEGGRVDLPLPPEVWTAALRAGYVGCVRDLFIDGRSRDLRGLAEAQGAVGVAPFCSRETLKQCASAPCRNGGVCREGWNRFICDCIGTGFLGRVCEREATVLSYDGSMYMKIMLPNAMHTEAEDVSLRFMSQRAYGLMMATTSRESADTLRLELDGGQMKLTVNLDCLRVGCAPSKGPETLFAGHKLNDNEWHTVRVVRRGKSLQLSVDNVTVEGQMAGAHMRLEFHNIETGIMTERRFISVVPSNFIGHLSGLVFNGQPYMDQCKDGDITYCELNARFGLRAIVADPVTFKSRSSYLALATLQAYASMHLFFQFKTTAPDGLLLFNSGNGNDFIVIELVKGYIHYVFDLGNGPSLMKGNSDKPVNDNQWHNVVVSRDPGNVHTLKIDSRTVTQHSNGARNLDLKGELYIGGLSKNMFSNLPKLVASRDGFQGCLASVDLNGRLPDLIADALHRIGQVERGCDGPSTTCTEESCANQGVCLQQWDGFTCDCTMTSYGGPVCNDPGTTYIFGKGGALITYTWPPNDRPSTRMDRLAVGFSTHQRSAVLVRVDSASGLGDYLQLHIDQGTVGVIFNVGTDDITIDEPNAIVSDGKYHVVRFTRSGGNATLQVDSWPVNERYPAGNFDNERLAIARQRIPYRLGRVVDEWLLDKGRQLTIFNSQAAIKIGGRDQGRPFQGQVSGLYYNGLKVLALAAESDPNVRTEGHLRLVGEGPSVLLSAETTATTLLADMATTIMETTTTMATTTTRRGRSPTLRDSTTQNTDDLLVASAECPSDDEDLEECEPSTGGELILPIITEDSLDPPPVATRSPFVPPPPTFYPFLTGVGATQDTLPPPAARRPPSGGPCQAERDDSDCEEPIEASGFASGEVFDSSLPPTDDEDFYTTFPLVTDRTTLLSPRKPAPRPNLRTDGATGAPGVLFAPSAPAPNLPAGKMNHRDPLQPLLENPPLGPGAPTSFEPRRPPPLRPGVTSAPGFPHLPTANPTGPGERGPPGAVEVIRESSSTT

B1: Recombinant human His-tagged IgSF21 protein (R&D Systems #10330-S2) (natural protein, UniProt Q96ID5 25-444, looked up)
chain: YLTVNIEPLPPVVAGDAVTLKCNFKTDGRMREIVWYRVTDGGTIKQKIFTFDAMFSTNYSHMENYRKREDLVYQSTVRLPEVRISDNGPYECHVGIYDRATREKVVLASGNIFLNVMAPPTSIEVVAADTPAPFSRYQAQNFTLVCIVSGGKPAPMVYFKRDGEPIDAVPLSEPPAASSGPLQDSRPFRSLLHRDLDDTKMQKSLSLLDAENRGGRPYTERPSRGLTPDPNILLQPTTENIPETVVSREFPRWVHSAEPTYFLRHSRTPSSDGTVEVRALLTWTLNPQIDNEALFSCEVKHPALSMPMQAEVTLVAPKGPKIVMTPSRARVGDTVRILVHGFQNEVFPEPMFTWTRVGSRLLDGSAEFDGKELVLERVPAELNGSMYRCTAQNPLGSTDTHTRLIVFENPNIPRGTEDSN
notes: Immunoglobulin superfamily member 21 (IgSF21), human, soluble recombinant protein; Soluble bought protein, probably the ectodomain without the GPI-anchor signal; also called IgSF21-His; human IgSF21-His; source: bought: R&D Systems (#10330-S2), purified
Binder B1 has a Kd of 5.67 nM.
